Tested on: MS2 coat protein
Assay: apparent KD of MS2 coat protein; designed switch direction (-1 OFF switch, 1 ON switch): 1; higher = weaker reporter binding
Method in brief: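 Designed RNA switches were transcribed on Illumina chips by stalled E. coli RNA polymerase and titrated with SNAP-549-labelled MS2 coat protein from 0.7 or 1.5 nM, doubling to 3 µM. Step length ran from 0.8–1.5 h at the lowest concentration to 10–20 min at the highest. The apparent KD is the median over clusters for each design, from curve-fitted normalised cluster fluorescence.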

[1] = Eterna round: R95, input ligand: FMN 200 uM
[2] = Eterna round: R95, input ligand: microRNA oligo, concentration not stated
[3] = Eterna round: R95, input ligand: none
[4] = input ligand: microRNA oligo, concentration not stated

Sequence | apparent KD of MS2 coat protein [1] | apparent KD of MS2 coat protein [2] | apparent KD of MS2 coat protein [3] | apparent KD of MS2 coat protein (input ligand: FMN 200 uM) | apparent KD of MS2 coat protein [4] | apparent KD of MS2 coat protein (input ligand: none)
UACUAUCUAUCUCAGGAUAUCAUGUCAAAGACAUGAGGAUCACCCAUGUACCAGGAAACUGGUUAUGAGAAGGGAGAUAGAUAGA [Mat - Same State 2 - Mod - D39] (puzzle: Same State 2) | 98.2 nM | 45.1 nM | 234 nM | – | – | –
GGCCGGCCGAACGGAGGGCCACAUGAGGAUCACCCAUGUACAUAGGAUAUCAUGUCAACGAGGCAUGAGAAGGGUGAUUAAAGC [Orenriaran] (Eterna round: R96, puzzle: Same State NG 3) | – | – | – | 65 nM | 72.9 nM | 57.7 nM
AUAAAACAUGAGGAUCACCCAUGUCAACAAAGUCGAGGAUAUGGGCAUAUAAAAUAAGAACCAGAAGGCGAAUAAU [salish99_ss1_r3_026] (puzzle: Same State 1) | 32.2 nM | 265 nM | 230 nM | – | – | –
GAUACACAUGAGGAUCACCCAUGUCGUAUGACAUGAGGAUAUGUACAGACUUCGGUCUGUACAGAAGGCAUGUGUC [SS1 - 1011 Omei Mod 2] (puzzle: Same State 1) | – | 48.3 nM | – | – | – | –
GUGGUCAGACAUGAGGAUCACCCAUGUGGAAUAAAUAAGGGAGAGGAUAUUUAAUAUAGGAUAUAAAAGAAGGCUCGGUUGGUG (Eterna round: R96, puzzle: Same State NG 3) | – | – | – | 86.3 nM | 113 nM | 115 nM
GAGGGCGAAAGCAACAUGAGGAUCACCCAUGUCCUCGGAGGUCAGGAUAUCCGGCGGUAGCCGAAGGAGAAGGGACGGUGAACC [AK SSNG3-V2-32.1] (Eterna round: R96, puzzle: Same State NG 3) | – | – | – | 180 nM | 97.5 nM | 175 nM
UCCGCUAUCUAGAAGGAUAUGCGUAUAUAAACAUGAGGAUCACCCAUGUACCGGCGAAAACCGGUGCAGAAGGUUUAGCUAGUGA [Rediin] (Eterna round: R96, puzzle: Same State 2) | – | – | – | 69.8 nM | 298 nM | 359 nM
AACUAUCUAUCUCAGGAUAUCAUGUCAAAGACAUGAGGAUCACCCAUGUACCAGGAAACUGGUUAUGAGAAGGGAGAUAGAUAGU [Mat - Same State 2 - Mod - D41] (puzzle: Same State 2) | 127 nM | 263 nM | 602 nM | – | – | –
AGUCCAGCCUGAGCUGGACAAAAGCAUGUACAUGAGGAUCACCCAUGUUCAUGUACAAGCUUUUUGCUCGUCUUAGC [salish99_208a_r3_063] (puzzle: Sensor for hsa-mir-208a) | 837 nM | 14.6 nM | 648 nM | – | – | –
AGCUAUUAAUCAGGAUAUAGUGACAUGAGGAUCACCCAUGUAUUGAUGAUGAAAUGUGGUCGCCGCUAGAAGGGAUUACUAACA [SameState NG2 #45] (Eterna round: R96, puzzle: Same State NG 2) | – | – | – | 75.1 nM | 27.7 nM | 34 nM
UUAAUGAAGUAAGGAUAUACAUGAGGAUCACUCGUAGAAGGUACUAUACAUGAGGAUCACCCAUGUGCCGGUCAGAAGACUGGA [Mat - Same State NG 1 - JL mod - D5] (Eterna round: R96, puzzle: Same State NG 1) | – | – | – | 755 nM | 534 nM | 723 nM
UGCUUCAUGUAAGGAUAUGCAGCCGUUUCGGCUGCAGAAGGUACUAUAAUACAUGAGGAUCACCCAUGUCUCUCGCAUUGCGAG [salish99_SSng1_r04_301] (Eterna round: R96, puzzle: Same State NG 1) | – | – | – | – | 111 nM | –
AGGCUCAGACGAGGAUAUGAUCAUGGCGCUUCGGCGCAUACAUGAGGAUCACCCAUGUAGGGUGAUCAGAAGGCGUCUGAGCCA [SSNG2/8-A1] (Eterna round: R96, puzzle: Same State NG 2) | – | – | – | 42.1 nM | 225 nM | 314 nM
CUCAAACAUGAGGAUCACCCAUGUGUUGUCGUGGGAGGAUAUCCCAGUUCGGUGGCGUCGGGAGAAGGCCUAUGUC (Eterna round: R96, puzzle: Same State 1) | – | – | – | 67.8 nM | 106 nM | 129 nM
GUGCUCGUGUGAGGAUAUGCUUCCGGUUCGGCUGCAGAAGGUACUAUUAUACAUGAGGAUCACCCAUGUCGCUUUUCUCCGGUG [salish99_SSNG1_r04_916] (Eterna round: R96, puzzle: Same State NG 1) | – | – | – | 28.3 nM | 17.6 nM | 25 nM
ACAUGAGGAUCACCCAUGUAGGCUCAGGAAACUGUGCCACAUGAGGAUAUGGAUCCUAAUUGGAUCCAGAAGGCAUGUAUUAUU [Fiskers NG3ss - 22] (Eterna round: R96, puzzle: Same State NG 3) | – | – | – | 112 nM | 41.6 nM | 66.1 nM
GUAGAAGAACUAGAGGAUAUCCGAGUGGUAACAUGAGGAUCACCCAUGUGAUGAAAGGAACAUGAGGAGAAGGCUAGAAUGAAUG [Mat - Same State 2 - Mod of JL - D83] (puzzle: Same State 2) | 24.7 nM | 45.7 nM | 79.2 nM | – | – | –
GGUGGGUUACUACCCACACAUGAGGAUCACCCAUGUAUUGGGAAGGAUAUGGUACCUAUUUGGUACCAGAAGGUCCUGAAGGUG [SS-NG3-LRO16] (Eterna round: R96, puzzle: Same State NG 3) | – | – | – | 638 nM | 545 nM | 1170 nM
GCUCGACUGAUGGCCUACAUGAGGAUCACCCAUGUGAUUGGGCAGGAUAUCUAGAUGCAGGAUGUAGAGAAGGGCCAGUCGAGC [SameState NG3 #45] (Eterna round: R96, puzzle: Same State NG 3) | – | – | – | 1130 nM | 477 nM | 503 nM
GGUAGGUUACUACCAAUCUACAUGAGGAUCACCCAUGUGUGGAAGGAUAUGGUACCUAUUUGGUACCAGAAGGUCCAAUUAAUU [Fiskers NG3ss - 7] (Eterna round: R96, puzzle: Same State NG 3) | – | – | – | 179 nM | 64.7 nM | 153 nM
UGCUAGGAUAUCUUGAGGAUCACCCAGGAGAAGGAGCCAAGCUAGGAUAUCCUGAGGAUCACCCAGGAGAAGGAGCACAUACUC [pwkr ssNG3 DX 2xF5 +2xFMN.13] (Eterna round: R96, puzzle: Same State NG 3) | – | – | – | 107 nM | 59.6 nM | 102 nM
GCUAGGAUAUGACCAGGAUCACCGGUUAGAAGGAGCGAAAGCUAGGAUAUGACCAGGAUCACCGGUUAGAAGGAGCUGUCCUCC [pwkr ssNG3 DX 2xF5 +2xFMN.12] (Eterna round: R96, puzzle: Same State NG 3) | – | – | – | 69.1 nM | 101 nM | 117 nM
ACAUGAGACCAAGGAUAUGUUGUACCUACAUGUGACAUGAGGAUCACCCAUGUGGUAAGUAUGAGGCAGAAGGUGGAGAUAUGU [Equivalence 26 - Jieux - Same State NG 2] (Eterna round: R96, puzzle: Same State NG 2) | – | – | – | 26.5 nM | 44.2 nM | 59.3 nM
UCUUGGUUUUUGCUCGUUUUUUGUGUUGAACAUGAGGAUCACCCAUGUAUUGUACAGUCCGGUUUAGUGAUGGUCCG [JMF 58] (puzzle: Sensor for hsa-mir-208a) | 40.2 nM | 32.6 nM | 45 nM | – | – | –
UGGCUCAGAGCAGGAUAUAUGUCUCGAGCUUCGGCUCGAGACAUGAGGAUCACCCAUGUAAUAACAUAGAAGGGCUCUGAGCCA [SSNG2/1-B2] (Eterna round: R96, puzzle: Same State NG 2) | – | – | – | 16.3 nM | 41.7 nM | 74.7 nM
GUAAAACAUGAGGAUCACCCAUGUAAUAAUAUGGGAGGAUAUCAGAUUUAAUUUAAUUUAUGAGAAGGCCUAAAUG [Mat - Same State 1 - Mod of Eli - D59] (puzzle: Same State 1) | 57.4 nM | 181 nM | 427 nM | – | – | –
GGUUUAGCCAGGCGCAAUUGCGCCUGAAAACAUGAGGAUCACCCAUGUUUGGGACAAGCUUUGCUCCUCGUCUUGCA [Edreisza] (puzzle: Sensor for hsa-mir-208a) | 243 nM | 41.9 nM | 330 nM | – | – | –
GCUCGGCUGAUGGCCUACAUGAGGAUCACCCAUGUGUGUGGGCAGGAUAUCUAGAUUAAGGAUGUAGAGAAGGGCCUGCCGAGC [SameState NG3 #38] (Eterna round: R96, puzzle: Same State NG 3) | – | – | – | 2620 nM | 340 nM | 972 nM
ACAUGAGAGAUAGGAUAUCGUGUACCUACAUGUGACAUGAGGAUCACCCAUGUGGUAAGUAUGAGCGAGAAGGAUCCGAUAUGU [salish99_SSNG2_r04_1001] (Eterna round: R96, puzzle: Same State NG 2) | – | – | – | 18.6 nM | 38.6 nM | 66.4 nM
GCCGUAUAAACAUGAGGAUCACCCAUGUGCGCGAGAGCGGAUGAGGAUAUCGAUGGGUUUCCCGUCGAGAAGGCGUGGGUCGGC [JL SSNG3 3.97] (Eterna round: R96, puzzle: Same State NG 3) | – | – | – | 31 nM | 41.1 nM | 55.2 nM
